Reference: patent US20250263489A1 (TEIJIN PHARMA, published 2025)
Like-named read-outs stand apart in the source and are kept apart here.

Assays:
Assay in all cases: cell-based or functional assay
[1] = biological target: T1, IGF-1 receptor on the cells of the PathHunter IGF1R Functional Assay (DiscoverX) (UniProt P08069 31-1367)
[2] = biological target: T1, IGF-1 receptor on the cells of the …; remark: listed apart in the source
[3] = biological target: T1, IGF-1 receptor on the cells of the …; remark: listed apart in the source
[4] = biological target: T1, IGF-1 receptor on the cells of the …; remark: listed apart in the source
[5] = biological target: T1, IGF-1 receptor on the cells of the …; remark: listed apart in the source

T1 sequence (P08069 31-1367): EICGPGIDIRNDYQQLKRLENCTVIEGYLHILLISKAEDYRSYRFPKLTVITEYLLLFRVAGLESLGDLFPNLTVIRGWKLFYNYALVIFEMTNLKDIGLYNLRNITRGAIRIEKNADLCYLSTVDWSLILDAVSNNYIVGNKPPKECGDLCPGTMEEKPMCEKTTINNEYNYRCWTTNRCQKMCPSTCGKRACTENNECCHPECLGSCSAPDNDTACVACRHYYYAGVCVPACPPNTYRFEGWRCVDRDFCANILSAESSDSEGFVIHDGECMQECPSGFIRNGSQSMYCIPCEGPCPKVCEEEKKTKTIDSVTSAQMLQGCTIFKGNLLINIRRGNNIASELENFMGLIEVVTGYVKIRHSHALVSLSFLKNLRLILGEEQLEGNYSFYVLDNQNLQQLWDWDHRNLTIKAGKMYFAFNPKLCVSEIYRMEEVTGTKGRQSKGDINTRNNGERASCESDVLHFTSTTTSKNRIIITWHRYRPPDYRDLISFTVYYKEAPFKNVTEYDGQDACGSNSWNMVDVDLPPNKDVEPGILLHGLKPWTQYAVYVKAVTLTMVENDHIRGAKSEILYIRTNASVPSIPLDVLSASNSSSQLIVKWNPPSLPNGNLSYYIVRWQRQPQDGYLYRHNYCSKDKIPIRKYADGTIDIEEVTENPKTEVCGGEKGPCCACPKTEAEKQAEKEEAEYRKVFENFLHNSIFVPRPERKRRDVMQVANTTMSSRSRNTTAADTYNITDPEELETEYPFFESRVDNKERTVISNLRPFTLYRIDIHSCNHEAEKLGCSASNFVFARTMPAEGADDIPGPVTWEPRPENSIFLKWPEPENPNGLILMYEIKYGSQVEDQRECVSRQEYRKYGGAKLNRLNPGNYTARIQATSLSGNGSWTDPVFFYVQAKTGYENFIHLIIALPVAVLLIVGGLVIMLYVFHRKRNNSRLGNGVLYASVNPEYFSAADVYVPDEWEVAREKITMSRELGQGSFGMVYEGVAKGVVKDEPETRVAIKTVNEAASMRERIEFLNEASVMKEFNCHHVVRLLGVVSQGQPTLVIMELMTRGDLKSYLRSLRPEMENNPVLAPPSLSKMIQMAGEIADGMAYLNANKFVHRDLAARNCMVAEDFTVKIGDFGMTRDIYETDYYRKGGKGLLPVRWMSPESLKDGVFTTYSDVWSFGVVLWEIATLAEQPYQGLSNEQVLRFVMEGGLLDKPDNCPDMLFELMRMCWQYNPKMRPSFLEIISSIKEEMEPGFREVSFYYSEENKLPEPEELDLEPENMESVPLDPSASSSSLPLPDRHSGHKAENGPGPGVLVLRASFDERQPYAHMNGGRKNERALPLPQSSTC

B1: mouse parent antibody IGF11-16 (antibody, mouse IgG1, kappa, V domains shown)
VH: QIQLQQPGAELVKPGASVKLSCKAPGYTFTSYWMHWVKQRPGQGLEWIGETNPSNSVTNYNEKFKSKATLTVDKSSSTAYMQLSSLTSEDSAVYYCTIGRGRGFAYWGQGTLVTVSA
VL: DIQMNQSPSSLSASLGDTITITCRASQNINFWLSWCQQKPGNIPKLLIYKASNLHTGVPSRFSGSGSGTDFTLTISSLQPEDIATYYCLQGQSYPYTFGGGTKLEIKR
Activation intensity (RLU), PathHunter [1]: 2180 RLU | Fluorescence intensity (0.1 nM) (RLU), PathHunter [1]: 557 RLU | Fluorescence intensity (12.5 nM) (RLU), PathHunter [1]: 2730 RLU | Ratio of activation intensity, PathHunter [1]: 1 relative to IGF11-16 | Signal intensity ratio (compared to IGF11-16) at 16.7 nM, PathHunter [2]: 1 ratio to IGF11-16 | Activation intensity (RLU), PathHunter [3]: 3570 RLU | Fluorescence intensity (0.1 nM) (RLU), PathHunter [3]: 230 RLU | Fluorescence intensity (12.5 nM) (RLU), PathHunter [3]: 3800 RLU | Ratio of activation intensity, PathHunter [3]: 1 relative to IGF11-16

B2: IGF11-16 with alanine substitution of W at position 32 (CDR-L1) (antibody, V domains shown)
VH: QIQLQQPGAELVKPGASVKLSCKAPGYTFTSYWMHWVKQRPGQGLEWIGETNPSNSVTNYNEKFKSKATLTVDKSSSTAYMQLSSLTSEDSAVYYCTIGRGRGFAYWGQGTLVTVSA
VL: DIQMNQSPSSLSASLGDTITITCRASQNINFALSWCQQKPGNIPKLLIYKASNLHTGVPSRFSGSGSGTDFTLTISSLQPEDIATYYCLQGQSYPYTFGGGTKLEIK
Signal activation EC50 vs IGF11-16, PathHunter [4]: 9.5 ratio vs IGF11-16 | Signal activation Emax vs IGF11-16, PathHunter [4]: 1.5 ratio vs IGF11-16

B3: FW1_var1 antibody (antibody, V domains shown)
VH: QVQLVQSGAEVKKPGASVKVSCKASGYTFTSYWMHWVRQAPGQGLEWMGETNPSNSVTNYAQKFQGRVTLTVDTSTSTAYMELSSLRSEDTAVYYCTIGRGRGFAYWGQGTLVTVSS
VL: DIQMTQSPSSVSASVGDRVTITCRASQNINFWLSWCQQKPGKIPKLLIYKASNLHTGVPSRFSGSGSGTDFTLTISSLQPEDFATYYCLQGQSYPYTFGGGTKLEIK
Activation intensity (RLU), PathHunter [1]: 1600 RLU | Fluorescence intensity (0.1 nM) (RLU), PathHunter [1]: 555 RLU | Fluorescence intensity (12.5 nM) (RLU), PathHunter [1]: 2160 RLU | Ratio of activation intensity, PathHunter [1]: 0.74 relative to IGF11-16 | Signal intensity ratio (compared to IGF11-16) at 16.7 nM, PathHunter [2]: 0.66 ratio to IGF11-16 | Activation intensity (RLU), PathHunter [3]: 2270 RLU | Fluorescence intensity (0.1 nM) (RLU), PathHunter [3]: 209 RLU | Fluorescence intensity (12.5 nM) (RLU), PathHunter [3]: 2480 RLU | Ratio of activation intensity, PathHunter [3]: 0.64 relative to IGF11-16

B4: FW1_var9-hH2a (antibody, V domains shown)
VH: QVQLQQSGAEVKKPGASVKVSCKASGYTFTSYWMHWVRQAPGQGLEWMGETNPSNSVTNYAQKFQGRVTLTVDTSTSTAYMELSSLRSEDTAVYYCTIGRGRGFAYWGQGTLVTVSS
VL: DIQMTQSPSSVSASVGDRVTITCRASQNINFWLSWYQQKPGKAPKLLIYKASNLHTGVPSRFSGSGSGTDFTLTISSLQPEDFATYYCLQGQSYPYTFGGGTKLEIK
Signal intensity ratio (compared to IGF11-16) at 16.7 nM, PathHunter [2]: 0.54 ratio to IGF11-16

B5: FW1_var9-hH4a (antibody, V domains shown)
VH: QVQLVQSGAELKKPGASVKVSCKASGYTFTSYWMHWVRQAPGQGLEWMGETNPSNSVTNYAQKFQGRVTLTVDTSTSTAYMELSSLRSEDTAVYYCTIGRGRGFAYWGQGTLVTVSS
VL: DIQMTQSPSSVSASVGDRVTITCRASQNINFWLSWYQQKPGKAPKLLIYKASNLHTGVPSRFSGSGSGTDFTLTISSLQPEDFATYYCLQGQSYPYTFGGGTKLEIK
Signal intensity ratio (compared to IGF11-16) at 16.7 nM, PathHunter [2]: 0.65 ratio to IGF11-16

B6: FW1_var14_NEKS (antibody, human IgG4, V domains shown)
VH: QVQLVQSGAEVKKPGASVKVSCKASGYTFTSYWMHWVRQAPGQGLEWMGETNPSNSVTNYNEKFKSRVTLTVDTSTSTAYMELSSLRSEDTATYYCTIGRGRGFAYWGQGTLVTVSS
VL: DIQMTQSPSSVSASVGDRVTITCRASQNINFWLSWYQQKPGKAPRLLIYKASNLHTGVPSRFSGSGSGTDFTLTISSLQPEDFATYYCLQGQSYPYTFGGGTKLEIK
Activation intensity (RLU), PathHunter [3]: 1740 RLU | Fluorescence intensity (0.1 nM) (RLU), PathHunter [3]: 221 RLU | Fluorescence intensity (12.5 nM) (RLU), PathHunter [3]: 1960 RLU | Ratio of activation intensity, PathHunter [3]: 0.49 relative to IGF11-16

B7: FW1_var9-hH3a (antibody, V domains shown)
VH: QVQLVQPGAEVKKPGASVKVSCKASGYTFTSYWMHWVRQAPGQGLEWMGETNPSNSVTNYAQKFQGRVTLTVDTSTSTAYMELSSLRSEDTAVYYCTIGRGRGFAYWGQGTLVTVSS
VL: DIQMTQSPSSVSASVGDRVTITCRASQNINFWLSWYQQKPGKAPKLLIYKASNLHTGVPSRFSGSGSGTDFTLTISSLQPEDFATYYCLQGQSYPYTFGGGTKLEIK
Signal intensity ratio (compared to IGF11-16) at 16.7 nM, PathHunter [2]: 0.6 ratio to IGF11-16

B8: FW1-var9-mFR-H3 (antibody, V domains shown)
VH: QVQLVQSGAEVKKPGASVKVSCKASGYTFTSYWMHWVRQAPGQGLEWMGETNPSNSVTNYAQKFQGRVTLTVDKSSSTAYMQLSSLTSEDSAVYYCTIGRGRGFAYWGQGTLVTVSA
VL: DIQMTQSPSSVSASVGDRVTITCRASQNINFWLSWYQQKPGKAPKLLIYKASNLHTGVPSRFSGSGSGTDFTLTISSLQPEDFATYYCLQGQSYPYTFGGGTKLEIK
Signal intensity (ratio to IGF11-16) at 16.7 nM, PathHunter [5]: 0.7 ratio to human chimeric IGF11-16

B9: FW1-var9-mFR-H2 (antibody, V domains shown)
VH: QVQLVQSGAEVKKPGASVKVSCKASGYTFTSYWMHWVKQRPGQGLEWIGETNPSNSVTNYAQKFQGRVTLTVDTSTSTAYMELSSLRSEDTAVYYCTIGRGRGFAYWGQGTLVTVSS
VL: DIQMTQSPSSVSASVGDRVTITCRASQNINFWLSWYQQKPGKAPKLLIYKASNLHTGVPSRFSGSGSGTDFTLTISSLQPEDFATYYCLQGQSYPYTFGGGTKLEIK
Signal intensity (ratio to IGF11-16) at 16.7 nM, PathHunter [5]: 0.51 ratio to human chimeric IGF11-16

B10: FW1-var9-mFR-L1 (antibody, V domains shown)
VH: QVQLVQSGAEVKKPGASVKVSCKASGYTFTSYWMHWVRQAPGQGLEWMGETNPSNSVTNYAQKFQGRVTLTVDTSTSTAYMELSSLRSEDTAVYYCTIGRGRGFAYWGQGTLVTVSS
VL: DIQMNQSPSSLSASLGDTITITCRASQNINFWLSWYQQKPGKAPKLLIYKASNLHTGVPSRFSGSGSGTDFTLTISSLQPEDFATYYCLQGQSYPYTFGGGTKLEIK
Signal intensity (ratio to IGF11-16) at 16.7 nM, PathHunter [5]: 0.51 ratio to human chimeric IGF11-16

B11: FW1_var9-hH5a (antibody, V domains shown)
VH: QVQLVQSGAEVVKPGASVKVSCKASGYTFTSYWMHWVRQAPGQGLEWMGETNPSNSVTNYAQKFQGRVTLTVDTSTSTAYMELSSLRSEDTAVYYCTIGRGRGFAYWGQGTLVTVSS
VL: DIQMTQSPSSVSASVGDRVTITCRASQNINFWLSWYQQKPGKAPKLLIYKASNLHTGVPSRFSGSGSGTDFTLTISSLQPEDFATYYCLQGQSYPYTFGGGTKLEIK
Signal intensity ratio (compared to IGF11-16) at 16.7 nM, PathHunter [2]: 0.56 ratio to IGF11-16

B12: FW1_var10_NEKS (antibody, human IgG4, V domains shown)
VH: QVQLVQSGAEVKKPGASVKVSCKASGYTFTSYWMHWVRQAPGQGLEWMGETNPSNSVTNYNEKFKSRVTLTVDTSTSTAYMELSSLRSEDTATYYCTIGRGRGFAYWGQGTLVTVSS
VL: DIQMTQSPSSVSASVGDRVTITCRASQNINFWLSWYQQKPGKAPKLLIYKASNLHTGVPSRFSGSGSGTDFTLTISSLQPEDFATYYCLQGQSYPYTFGGGTKLEIK
Activation intensity (RLU), PathHunter [3]: 1960 RLU | Fluorescence intensity (0.1 nM) (RLU), PathHunter [3]: 223 RLU | Fluorescence intensity (12.5 nM) (RLU), PathHunter [3]: 2190 RLU | Ratio of activation intensity, PathHunter [3]: 0.55 relative to IGF11-16

B13: FW1_var9-hH6a (antibody, V domains shown)
VH: QVQLVQSGAEVKKPGASVKLSCKASGYTFTSYWMHWVRQAPGQGLEWMGETNPSNSVTNYAQKFQGRVTLTVDTSTSTAYMELSSLRSEDTAVYYCTIGRGRGFAYWGQGTLVTVSS
VL: DIQMTQSPSSVSASVGDRVTITCRASQNINFWLSWYQQKPGKAPKLLIYKASNLHTGVPSRFSGSGSGTDFTLTISSLQPEDFATYYCLQGQSYPYTFGGGTKLEIK
Signal intensity ratio (compared to IGF11-16) at 16.7 nM, PathHunter [2]: 0.55 ratio to IGF11-16

B14: FW1-var9-mFR-H1 (antibody, V domains shown)
VH: QIQLQQPGAELVKPGASVKLSCKAPGYTFTSYWMHWVRQAPGQGLEWMGETNPSNSVTNYAQKFQGRVTLTVDTSTSTAYMELSSLRSEDTAVYYCTIGRGRGFAYWGQGTLVTVSS
VL: DIQMTQSPSSVSASVGDRVTITCRASQNINFWLSWYQQKPGKAPKLLIYKASNLHTGVPSRFSGSGSGTDFTLTISSLQPEDFATYYCLQGQSYPYTFGGGTKLEIK
Signal intensity (ratio to IGF11-16) at 16.7 nM, PathHunter [5]: 1.08 ratio to human chimeric IGF11-16

B15: FW1-var9-mFR-L2 + L3 (antibody, V domains shown)
VH: QVQLVQSGAEVKKPGASVKVSCKASGYTFTSYWMHWVRQAPGQGLEWMGETNPSNSVTNYAQKFQGRVTLTVDTSTSTAYMELSSLRSEDTAVYYCTIGRGRGFAYWGQGTLVTVSS
VL: DIQMTQSPSSVSASVGDRVTITCRASQNINFWLSWYQQKPGNIPKLLIYKASNLHTGVPSRFSGSGSGTDFTLTISSLQPEDIATYYCLQGQSYPYTFGGGTKLEIK
Signal intensity (ratio to IGF11-16) at 16.7 nM, PathHunter [5]: 0.5 ratio to human chimeric IGF11-16

B16: FW1_var9-hH7a (antibody, V domains shown)
VH: QVQLVQSGAEVKKPGASVKVSCKAPGYTFTSYWMHWVRQAPGQGLEWMGETNPSNSVTNYAQKFQGRVTLTVDTSTSTAYMELSSLRSEDTAVYYCTIGRGRGFAYWGQGTLVTVSS
VL: DIQMTQSPSSVSASVGDRVTITCRASQNINFWLSWYQQKPGKAPKLLIYKASNLHTGVPSRFSGSGSGTDFTLTISSLQPEDFATYYCLQGQSYPYTFGGGTKLEIK
Signal intensity ratio (compared to IGF11-16) at 16.7 nM, PathHunter [2]: 1.09 ratio to IGF11-16

B17: FW1_var9-hH1a (antibody, V domains shown)
VH: QIQLVQSGAEVKKPGASVKVSCKASGYTFTSYWMHWVRQAPGQGLEWMGETNPSNSVTNYAQKFQGRVTLTVDTSTSTAYMELSSLRSEDTAVYYCTIGRGRGFAYWGQGTLVTVSS
VL: DIQMTQSPSSVSASVGDRVTITCRASQNINFWLSWYQQKPGKAPKLLIYKASNLHTGVPSRFSGSGSGTDFTLTISSLQPEDFATYYCLQGQSYPYTFGGGTKLEIK
Signal intensity ratio (compared to IGF11-16) at 16.7 nM, PathHunter [2]: 0.7 ratio to IGF11-16
